In a protein production outcome set (Wang et al. 2014) one finds protein production data, which are given here for 36 sequences.

The data set in a line: label from the status in PepcDB records.

Turning to “HYIFPHARIKITRDSKDHTVSGNGLGIRIVGGKEIPGHSGEIGAYIAKILPGGSAEQTGKLMEGMQVLEWNGIPLTSKTYEEVQSIISQQSGEAEICVRLDLNM”, the protein production entry is on record as “not failed”.

For “HYTPKSLTEAIVAETLTPLTYFGPVEGSACKEWTLKTPAELLDLKICDPAMGSGAFLVQACRWLADRLVEAWAQAEIKGKIINVDGNVLDDLSSNELMPHDIDARINIARYLIAERCLYGIDLNPLAVELAKLSIWLVTLAKGRPFGFLDHSLRCGDSLLGIHQVNQLIELSVLTNSDDQDTLFSKDIRKAIYDASKLRQRLREMPIGDIHDIEEMERLNTEAHKRLYKAKKIADALVGEIFATGANFSAREARLKMLSLKLKESVEEDENIFMEISYQGTVKLQQELPSGRSKRIPIHWPLEFPEVFIRTCSGFDAIIGNPPFLGGRKITGVFGNLYREYLVANIAKGERGSSADLVAYFFLRSFYLLRESGCLGLIAVNSIAEGDSRQIGLERLLQSGAQIFSATPNEPWPGKAAVVTSRIHLIKGAFFGEKLLNGKKVAIISAFLSDQNEWSPKILKENLGQS”, the protein production result is “failed”.

As to “IEIDSGSGFCFGVVNAIRHAEKQLEKSSDKLYCLGDIVHNTLEVERLGKKGLETIDYDAFSRLRGAKVLLRAHGEPPEIYRMAGENGVTIIDATCPVVLRLQNKIKSRYEATRSLGAQVVIYGKRGHAEVNGLVGQTEGTAIVIESEEELDKIDYTRPVILFSQTTKSLEGFGQIIDSISTRMQPGVTFEHHDTICRQVANRIPHIGAFATAHELVFFVAGEKSSNGKVLFGHCLAANPRSIFISSPEVIVPDMLVPLPASIGICGATSTPRWQMEEVASHIKAL”, the protein production entry is “failed”.

As for “IESIPMPILYKNMEGSYLGCNSKFLELSGKSREEVIGFRVGDLLDKKSAMEIEECERHLKEKGECPSHDIRFVDHRGEECFIRVYKTLLTNNFDEPVGILGFFVDMS”, the protein production entry is “failed”.

Regarding “IIAGETSIPSQGENMPAYHARPKNADGPLPIVIVVQEIFGVHEHIRDLCRRLAQEGYLAIAPELYFRQGDPNEYHDIPTLFKELVSKVPDAQVLADLDHVASWAARHGGDAHRLLITGFCWGGRITWLYAAHNPQLKAAVAWYGKLVGEKSLNSPKHPVDIAVDLNAPVLGLYGAKDASIPQDTVETMRQALRAANATAEIVVYPEADHAFNADYRASYHEESAKDGWQRMLAWFAQY”, the protein production entry is recorded as “not failed”.

Turning to “IIWDWNVERDRIIVHPDMKSLFGTETHKLNGPMQNWISALHHDDRERFQAVLDIILKNKKGRIDQIFRLSSGGGYYHWFSLRARPAMQKDGKITRVIGTIVNITNHKKA”, the protein production result is recorded as “failed”.

Take “ILVKNLPQDSNCQEVHDLLKDYDLKYCYVDRNKRTAFVTLLNGEQAQNAIQMFHQYSFRGKDLIVQLQPTDALLC”: the protein production result is “not failed”.

On to “IRVAAFNVLNYDNGAEKGFPTDRGATTATEFSRQHQKIVTALKAINADVYGLMEIANNGYDEKSAIAYLTKSLGPDWKYITPPNMNRLGSDVIAVGILYNAKRVKPVNAAVVFDDQSQKNRVTMAQTFQPIHGGKFFTVIPNHLKSKGSCPEDTASTDADQLDGQGCWNPTRVKAVEQLIQWAAKNPTRVQQPNILFLGDMNSYAKEDPILAFEKANYKVLLNDEKIGQGKQAYSYVFGVSSNALGYGGAGNIDHAIADSNLYRFVKRAFVWHINADEPTALDYNEEYKTDEQKTLFYADDAYRSSDHDPVIVDLDLKESAQQGGVLNFIQQLLDWIAQLFTRT”, for which the protein production entry is “failed”.

On to “ISDRKMAEIALRESEARFRNLFESNIVGMFFASNQGEIFDANDRFLQMIGFTKEELDLGLVHWDRLTPPEYDQKDQEIIARLRNHETPEPWQKEYYRKDGSRIPVLVGVASIDVELEYTVCIVVDMT”, for which the protein production entry was “failed”.

Take “ISEWARKEQAIRNSEANFRDIFASIKDGLLVLDEDNYICYANAQAVKLLNCTLEELVGTIGSPLEDTEFSLLVDDGTIYTVDVSVTEITWYGQTAKLVSLRDISDRKRMENQLRENQNKYYRLLENLD”: the protein production result is on record as “failed”.

For “ITKRNVELRVDDSLMRVYVASPKPVGVYPGIVFYSDIYQLGSPIIRLANYLAGFGYVVAAPEIFHRLEPIGLVIEPDDLGRMRGNDNARRTAIAEYDADSRAVIDFLKAETTVNANK”, the protein production entry is “failed”.

Regarding “IYLYATATGEVRQMHGITVDRERERRVPDHHQLDSDTTTHSHSVKNQEYYKLLHENDTWKLSQSLKDRPFVALNPTRKAQMLAHLCNDLLMNKAVLRQIDGSLETCAQMRKEKYMTDMKVRKYKALHMRKARIEAYERAQAEREAAMQALM”, the protein production entry was “failed”.

For the sequence “KAKPVATAPIPGTPWCVVWTGDERVFFYNPTTRLSMWDRPDDLIGRADVDKIIQEPPHKK”, the protein production entry is listed as “not failed”.

“KALAHAKNDSVAVATDDLKEGEEIQVAFLDNNEKTKITTAEVIPLGHKISLKDIKKGENVIEYGEVIGAATKDIKRGEHVHIHNIKSLRW”: the protein production entry was “failed”.

On to “KEETEIIEGEVVEIQIDRPATGTGSKVGKLTLKTTEMETIYDLGTKMIESLTKDKVQAGDVITIDKATGKISKLGRSFTRAR”, for which the protein production result is “not failed”.

Turning to “KEYNIVITGVGGQGILTAANILGWAALRAGYKVRVGEIHGMSQRFGSVIAYVRFGEEVYGAMVPEGKADVILSFEPVEALRYINYLKKGGLVFTNARPIPPVQVSMGIARYPSLEEIKRIVEEDFGGRFLAFDAEKLAIEAGHVVTTNVVLIGALTQTPGFPLSEDHVRDVIKLNVPPKAVEINMRAFDLGVKT”, the protein production entry is given as “failed”.

“KGMIRPRGLNQQRYVKEVLSNDINFGIGPAGTGKTYLAVACAVDALEREQIRRILLVRPAVEAGEKLGFLPGDLAQKIDPYLRPLYDALYEMLGFEYVAKLIEKQVIEVAPLAYMRGRTLNNSFIILDESQNTTVEQMKMFLTRIGFGSTAVITGDITQVDLPKGTRSGLTHVIDVLKDVPGISFTHFKPKDVVRHPLVQRIVEAYERFDDQLSDGPSGNNG”: the protein production entry is given as “not failed”.

Regarding “KIGKHTIKFPIFQGGMGVGISWDELAGNVAKEGALGVISAVGTGYYKNMRFVERIVAKKPFEALNFYSKKALNEIFANARKICGNNPLGANILYAINDYGRVLRDSCEAGANIIITGAGLPTNMPEFAKDFSDVALIPIISSAKALKILCKRWSDRYKRIPDAFIVEGPLSGGHQGFKYEDCFKEEFRLENLVPKVVEASKEWGNIPIIAAGGIWDRKDIDTMLSLGASGVQMATRFLGTKECDAKVYADLLPTLKKEDILLIKSPVGYPARAINTGVIKRIEEGNAPKIACVSNCVAPCNRGEEAKKVGYCIADGLGRSYLGNREEGLYFTGANGYRVDKIISVHELIK”, the protein production entry is reported as “failed”.

As to “KISNIFEDVEFCVMSGTDSQPKPDLENRIAEFGGYIVQNPGPDTYCVIAGSENIRVKNIILSNKHDVVKPAWLLECFKTKSFVPWQPRFMIHMCPSTKEHFAREYD”, the protein production result was “not failed”.

Consider “KKKVLIYGAGSAGLQLANMLRQGKEFHPIAFIDDDRKKHKTTMQGITIYRPKYLERLIKKHCISTVLLAVPSASQVQKKVIIESLAKLHVEVLTIPNLDDLVNGKLSIGQLKEVSIDDLLGRVAVTPQAELMEANIKD”, for which the protein production entry is listed as “not failed”.

Turning to “KKTEWSREEEEKLLHLAKLMPTQWRTIAPIIGRTAAQCLEHYEFLLDKAAQRD”, the protein production result is listed as “not failed”.

“KKVCVDTCVVIDGRITELIERGKLKDATIIIPEAVVSELEYQANMGREIGYKGIEELRKLIEKASEHNIKVEYYGERPTREEIFLAKSGEIDAMIRKVAKETNSILLTSDWIQYNLAKAQGIEAYFLEAAEEEVELVLD”: the protein production entry is “not failed”.

In the case of “KKYVDNLKETISRVEVSRDNFLTILNSLSEPIFILDREGKITFLNEIARELVQGRINPEGRPYYEIFEDYYINEMVEETIKSEEPQEGTLVTYVGNEKKYFHVKVIPVELKSGDKIFVILFHDVTKERKLDEMRREFIATVSHEL”, the protein production entry was “failed”.

Take “KLAYRHLIQPESAVRKLMILVNGRAENMLKWSELAYDFYHQGYDVLLFDHRGQGYSQRIIPQKGHLDEFRFYVDDMAKIIEKVTALFSYSTQHLLAHSMGALIATYYLANYDHHINKAVLSSPFYGILLKHPIRDELIITLMNILGQGERYVFGKGAYQQAHLEYNELTFCKTRMKWMNRINRKNPAINLGGPTFRWVHLCLNAIKRLPKVIPKIEIPILILQAEKEKIVDNKNLEKLTALFPNARCEVILNAKHEVLFEKDNVRRNVLKSVNHFLN”: the protein production result is listed as “failed”.

In the case of “KLRQWLIDQIDSGKYPGLVWENEEKSIFRIPWKHAGKQDYNREEDAALFKAWALFKGKFREGIDKPDPPTWKTRLRCALNKSNDFEELVERSQLDISDPYKVYRIVPE”, the protein production entry is on record as “not failed”.

As for “KLYGSIFTGASKFRCKDCSAAYDTLVELTVHMNETGHYRDDNHETDNNNPKRWSKPRKRSLLEMEGKEDAQKVLKCMYCGHSFESLQDLSVHMIKTKHYQKV”, the protein production entry is reported as “not failed”.

On to “KMLMPIEFELVESAPLFHELLHLRDAVGLPSIGVDMADGHPLQPLYWVSIHLTAKQDKNTATIVATACVYGDNANHFAIEDFIVLPEYRHIGLGKIILERVMAFVDDRATLGTYVSINTHGEQEKLCTDYGFAHSH”, for which the protein production entry is recorded as “failed”.

Regarding “KNVNRVLSAEALKPGMLLTGTVSSLEDHGYLVDIGVDGTRAFLPLLKAQEYIRQKNKGAKLKVGQYLNCIVEKVKGNGGVVSLSVGHSEVSTAIATEQQSWNLNNL”, the protein production entry is listed as “not failed”.

On to “KQKRMQAMIVTNHPEKVIEKIHKKLHRGATMIHDAEGTYNHERKAVLITVITRAEFNEFKQIMTQVDPSSFVSVSENVHILGRFVEIDN”, for which the protein production entry is on record as “failed”.

With “KQVAEIGDRAVELVHDGSLLAPEDMGPYVAPIAFNALPFAGNLVEDGTEETDEEQKLRNESRKILGLPDLKVAGTCVRVPVFTGHTMVVHAEFNNAITPEQAREVLGNAAGVDVVDVPTPLAAAGVDNSLVGRIRQDQTVDDNKGLVFVVSGDNLRKGAALNAIQIAELLV”, the protein production result is “failed”.

Regarding “KRASSKWLVCIGTSPSSAKLIRWTARTAEAFRAPWTALYIENEENDYMTKAEKKCLRETMELAERLGAEIVTLAGHDIAETVAEYARLTGVTNIVVGKSRRRMGLRSLFEEDFEDRLITHLDNVDMHIIP”, the protein production result was “failed”.

With “KRGRSVLVLDHAKKPGRKILISGGGRCNFTNYDVSASNYLCQNPHFVKSALSQYTNWDFISMVSKHGIEFEERDHGQLFCVDAFTAKDIVKMLLAECDMPNIQQRYQCDVHTIEKTEEGFRLHAGTEPVECESLVVATGGLSMPKLGATPFGYKVAEQ”, the protein production entry is given as “failed”.

Regarding “KRKTKEQLAILKSFFLQCQWARREDYQKLEQITGLPRPEIIQWFGDTRYALKHGQLKWFRDNA”, the protein production entry was “not failed”.

On to “KRRMELVGEYAGGITLIEDFAHHPTAIRLTLGAIAEHYPGRRIIACFEPRSNTTSRNIFQHELSECFGDAAIVVLGKVNRPERYAPEERLDAALLCRELKANGKRVFAAGSENYPEDIVRFIEAEQQPGDVVVLLSNGSFSGLKEMLAESFQKNS”, for which the protein production result is listed as “failed”.

With “KTFMIGVTSCISGDGKSFCSHNLARIYAISGKKTLLIRGDMRKAFNAPANLIPQGSMGLSQHLIGMATIDQIIHKGEIENLYQIIPGPVPPNASELVASQKMEEFIRIMKDKFEVVIMDSPPVGLVSDYMSVIKHIDANLYIVRYDYTPKETLEAIKDLKNKYPAQSHSIIFNGIT”, the protein production result is recorded as “failed”.

As for “KVILYARVSSSTQKDELVNQVKYLEEQVKEYDLVITDIGSGLNMKRKGFLKLLRMILNNEVSRVVVAYPDRLVRVGFEILEEVCKAHNCEIVVLNQEDKEEELVEDLMSALVSFSGKLYGMRSHEYEKVKKCAEELKNWKI”, the protein production result is on record as “not failed”.
